The source of these data is patent US20170275666A1, “Methods for Preparing Rebaudioside I and Uses” (The Coca-Cola Company, priority 2014, published 2017).

The labels stand for the following.
B1: UGT76G1var47: UGT76G1 variant, mutations E229A_T284I_S389E (protein, UniProt Q6VAB4 1-458, looked up, variant E229A T284I S389E)
UDP-glycosyltransferase 76G1: MENKTETTVRRRRRIILFPVPFQGHINPILQLANVLYSKGFSITIFHTNFNKPKTSNYPHFTFRFILDNDPQDERISNLPTHGPLAGMRIPIINEHGADELRRELELLMLASEEDEEVSCLITDALWYFAQSVADSLNLRRLVLMTSSLFNFHAHVSLPQFDELGYLDPDDKTRLEEQASGFPMLKVKDIKSAYSNWQILKEILGKMIKQTKASSGVIWNSFKELEESALETVIREIPAPSFLIPLPKHLTASSSSLLDHDRTVFQWLDQQPPSSVLYVSFGSISEVDEKDFLEIARGLVDSKQSFLWVVRPGFVKGSTWVEPLPDGFLGERGRIVKWVPQQEVLAHGAIGAFWTHSGWNSTLESVCEGVPMIFSDFGLDQPLNARYMEDVLKVGVYLENGWERGEIANAIRRVMVDEEGEYIRQNARVLKQKADVSLMKGGSSYESLESLVSYISSL
B2: UGT76G1var53: UGT76G1 variant, mutations R334K_A352G_P382M_S389E (protein, UniProt Q6VAB4 1-458, looked up, variant R334K A352G P382M S389E)
UDP-glycosyltransferase 76G1: MENKTETTVRRRRRIILFPVPFQGHINPILQLANVLYSKGFSITIFHTNFNKPKTSNYPHFTFRFILDNDPQDERISNLPTHGPLAGMRIPIINEHGADELRRELELLMLASEEDEEVSCLITDALWYFAQSVADSLNLRRLVLMTSSLFNFHAHVSLPQFDELGYLDPDDKTRLEEQASGFPMLKVKDIKSAYSNWQILKEILGKMIKQTKASSGVIWNSFKELEESELETVIREIPAPSFLIPLPKHLTASSSSLLDHDRTVFQWLDQQPPSSVLYVSFGSTSEVDEKDFLEIARGLVDSKQSFLWVVRPGFVKGSTWVEPLPDGFLGERGKIVKWVPQQEVLAHGAIGGFWTHSGWNSTLESVCEGVPMIFSDFGLDQMLNARYMEDVLKVGVYLENGWERGEIANAIRRVMVDEEGEYIRQNARVLKQKADVSLMKGGSSYESLESLVSYISSL
B3: UGT76G1var49: UGT76G1 variant, mutations F41L_Q266E_T284I_Y397Q (protein, UniProt Q6VAB4 1-458, looked up, variant F41L Q266E T284I Y397Q)
UDP-glycosyltransferase 76G1: MENKTETTVRRRRRIILFPVPFQGHINPILQLANVLYSKGLSITIFHTNFNKPKTSNYPHFTFRFILDNDPQDERISNLPTHGPLAGMRIPIINEHGADELRRELELLMLASEEDEEVSCLITDALWYFAQSVADSLNLRRLVLMTSSLFNFHAHVSLPQFDELGYLDPDDKTRLEEQASGFPMLKVKDIKSAYSNWQILKEILGKMIKQTKASSGVIWNSFKELEESELETVIREIPAPSFLIPLPKHLTASSSSLLDHDRTVFEWLDQQPPSSVLYVSFGSISEVDEKDFLEIARGLVDSKQSFLWVVRPGFVKGSTWVEPLPDGFLGERGRIVKWVPQQEVLAHGAIGAFWTHSGWNSTLESVCEGVPMIFSDFGLDQPLNARYMSDVLKVGVQLENGWERGEIANAIRRVMVDEEGEYIRQNARVLKQKADVSLMKGGSSYESLESLVSYISSL
B4: UGT76G1var51: UGT76G1 variant, mutations K303G_S357C_S389E_V396F (protein, UniProt Q6VAB4 1-458, looked up, variant K303G S357C S389E V396F)
UDP-glycosyltransferase 76G1: MENKTETTVRRRRRIILFPVPFQGHINPILQLANVLYSKGFSITIFHTNFNKPKTSNYPHFTFRFILDNDPQDERISNLPTHGPLAGMRIPIINEHGADELRRELELLMLASEEDEEVSCLITDALWYFAQSVADSLNLRRLVLMTSSLFNFHAHVSLPQFDELGYLDPDDKTRLEEQASGFPMLKVKDIKSAYSNWQILKEILGKMIKQTKASSGVIWNSFKELEESELETVIREIPAPSFLIPLPKHLTASSSSLLDHDRTVFQWLDQQPPSSVLYVSFGSTSEVDEKDFLEIARGLVDSGQSFLWVVRPGFVKGSTWVEPLPDGFLGERGRIVKWVPQQEVLAHGAIGAFWTHCGWNSTLESVCEGVPMIFSDFGLDQPLNARYMEDVLKVGFYLENGWERGEIANAIRRVMVDEEGEYIRQNARVLKQKADVSLMKGGSSYESLESLVSYISSL
B5: UGT76G1var50: UGT76G1 variant, mutations F22Y_V310I_S375M_F377C (protein, UniProt Q6VAB4 1-458, looked up, variant F22Y V310I S375M F377C)
UDP-glycosyltransferase 76G1: MENKTETTVRRRRRIILFPVPYQGHINPILQLANVLYSKGFSITIFHTNFNKPKTSNYPHFTFRFILDNDPQDERISNLPTHGPLAGMRIPIINEHGADELRRELELLMLASEEDEEVSCLITDALWYFAQSVADSLNLRRLVLMTSSLFNFHAHVSLPQFDELGYLDPDDKTRLEEQASGFPMLKVKDIKSAYSNWQILKEILGKMIKQTKASSGVIWNSFKELEESELETVIREIPAPSFLIPLPKHLTASSSSLLDHDRTVFQWLDQQPPSSVLYVSFGSTSEVDEKDFLEIARGLVDSKQSFLWVIRPGFVKGSTWVEPLPDGFLGERGRIVKWVPQQEVLAHGAIGAFWTHSGWNSTLESVCEGVPMIFMDCGLDQPLNARYMSDVLKVGVYLENGWERGEIANAIRRVMVDEEGEYIRQNARVLKQKADVSLMKGGSSYESLESLVSYISSL
B6: UGT76G1var2: UGT76G1 variant, mutations S274G_T284I_L379G (protein, UniProt Q6VAB4 1-458, looked up, variant S274G T284I L379G)
UDP-glycosyltransferase 76G1: MENKTETTVRRRRRIILFPVPFQGHINPILQLANVLYSKGFSITIFHTNFNKPKTSNYPHFTFRFILDNDPQDERISNLPTHGPLAGMRIPIINEHGADELRRELELLMLASEEDEEVSCLITDALWYFAQSVADSLNLRRLVLMTSSLFNFHAHVSLPQFDELGYLDPDDKTRLEEQASGFPMLKVKDIKSAYSNWQILKEILGKMIKQTKASSGVIWNSFKELEESELETVIREIPAPSFLIPLPKHLTASSSSLLDHDRTVFQWLDQQPPGSVLYVSFGSISEVDEKDFLEIARGLVDSKQSFLWVVRPGFVKGSTWVEPLPDGFLGERGRIVKWVPQQEVLAHGAIGAFWTHSGWNSTLESVCEGVPMIFSDFGGDQPLNARYMSDVLKVGVYLENGWERGEIANAIRRVMVDEEGEYIRQNARVLKQKADVSLMKGGSSYESLESLVSYISSL
B7: UGT76G1var55: UGT76G1 variant, mutations I295M_Q342E_V366I_N409R (protein, UniProt Q6VAB4 1-458, looked up, variant I295M Q342E V366I N409R)
UDP-glycosyltransferase 76G1: MENKTETTVRRRRRIILFPVPFQGHINPILQLANVLYSKGFSITIFHTNFNKPKTSNYPHFTFRFILDNDPQDERISNLPTHGPLAGMRIPIINEHGADELRRELELLMLASEEDEEVSCLITDALWYFAQSVADSLNLRRLVLMTSSLFNFHAHVSLPQFDELGYLDPDDKTRLEEQASGFPMLKVKDIKSAYSNWQILKEILGKMIKQTKASSGVIWNSFKELEESELETVIREIPAPSFLIPLPKHLTASSSSLLDHDRTVFQWLDQQPPSSVLYVSFGSTSEVDEKDFLEMARGLVDSKQSFLWVVRPGFVKGSTWVEPLPDGFLGERGRIVKWVPQEEVLAHGAIGAFWTHSGWNSTLESICEGVPMIFSDFGLDQPLNARYMSDVLKVGVYLENGWERGEIARAIRRVMVDEEGEYIRQNARVLKQKADVSLMKGGSSYESLESLVSYISSL
B8: UGT76G1var48: UGT76G1 variant, mutations V394I_Y397E_Q432E (protein, UniProt Q6VAB4 1-458, looked up, variant V394I Y397E Q432E)
UDP-glycosyltransferase 76G1: MENKTETTVRRRRRIILFPVPFQGHINPILQLANVLYSKGFSITIFHTNFNKPKTSNYPHFTFRFILDNDPQDERISNLPTHGPLAGMRIPIINEHGADELRRELELLMLASEEDEEVSCLITDALWYFAQSVADSLNLRRLVLMTSSLFNFHAHVSLPQFDELGYLDPDDKTRLEEQASGFPMLKVKDIKSAYSNWQILKEILGKMIKQTKASSGVIWNSFKELEESELETVIREIPAPSFLIPLPKHLTASSSSLLDHDRTVFQWLDQQPPSSVLYVSFGSTSEVDEKDFLEIARGLVDSKQSFLWVVRPGFVKGSTWVEPLPDGFLGERGRIVKWVPQQEVLAHGAIGAFWTHSGWNSTLESVCEGVPMIFSDFGLDQPLNARYMSDVLKIGVELENGWERGEIANAIRRVMVDEEGEYIRQNARVLKEKADVSLMKGGSSYESLESLVSYISSL
B9: UGT76G1var52: UGT76G1 variant, mutations D301N_I373L_F377C_I407V (protein, UniProt Q6VAB4 1-458, looked up, variant D301N I373L F377C I407V)
UDP-glycosyltransferase 76G1: MENKTETTVRRRRRIILFPVPFQGHINPILQLANVLYSKGFSITIFHTNFNKPKTSNYPHFTFRFILDNDPQDERISNLPTHGPLAGMRIPIINEHGADELRRELELLMLASEEDEEVSCLITDALWYFAQSVADSLNLRRLVLMTSSLFNFHAHVSLPQFDELGYLDPDDKTRLEEQASGFPMLKVKDIKSAYSNWQILKEILGKMIKQTKASSGVIWNSFKELEESELETVIREIPAPSFLIPLPKHLTASSSSLLDHDRTVFQWLDQQPPSSVLYVSFGSTSEVDEKDFLEIARGLVNSKQSFLWVVRPGFVKGSTWVEPLPDGFLGERGRIVKWVPQQEVLAHGAIGAFWTHSGWNSTLESVCEGVPMLFSDCGLDQPLNARYMSDVLKVGVYLENGWERGEVANAIRRVMVDEEGEYIRQNARVLKQKADVSLMKGGSSYESLESLVSYISSL
B10: UGT76G1var54: UGT76G1 variant, mutations E229A_T284L_R334K_Q342E (protein, UniProt Q6VAB4 1-458, looked up, variant E229A T284L R334K Q342E)
UDP-glycosyltransferase 76G1: MENKTETTVRRRRRIILFPVPFQGHINPILQLANVLYSKGFSITIFHTNFNKPKTSNYPHFTFRFILDNDPQDERISNLPTHGPLAGMRIPIINEHGADELRRELELLMLASEEDEEVSCLITDALWYFAQSVADSLNLRRLVLMTSSLFNFHAHVSLPQFDELGYLDPDDKTRLEEQASGFPMLKVKDIKSAYSNWQILKEILGKMIKQTKASSGVIWNSFKELEESALETVIREIPAPSFLIPLPKHLTASSSSLLDHDRTVFQWLDQQPPSSVLYVSFGSLSEVDEKDFLEIARGLVDSKQSFLWVVRPGFVKGSTWVEPLPDGFLGERGKIVKWVPQEEVLAHGAIGAFWTHSGWNSTLESVCEGVPMIFSDFGLDQPLNARYMSDVLKVGVYLENGWERGEIANAIRRVMVDEEGEYIRQNARVLKQKADVSLMKGGSSYESLESLVSYISSL

A short description of the series: Directed evolution of UGT76G1, conversion of Rebaudioside D to Rebaudioside M (round 1). The settings on record: 0.5 mM Rebaudioside D, 2.5 mM UDP-Glucose, 100 μL fresh lysate, 30° C., pH 7.2. Format: biochemical. Summed up:
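Conversion to Reb M and initial rate were measured by HPLC with CAD at 2, 4, 7 and 24 h, with reactions run at 30° C in 50 mM phosphate pH 7.2 containing 0.5 mM Reb D, 2.5 mM UDP-glucose and 3 mM MgCl2. Enzyme source: fresh lysates of E. coli BL21(DE3) expressing 3-5-mutation UGT76G1 variants.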
B1: the “Conversion Reb D to Reb M after 24 h (%)” value worked out at 4.8% and the “initial rate (Reb M area/min)” value is reported as 2.7E+06 Reb M area/min.
For the molecule B2, the “Conversion Reb D to Reb M after 24 h (%)” value is on record as 9.3% and the “initial rate (Reb M area/min)” value is 4.1E+06 Reb M area/min.
The corresponding values for B3 are 2.6% and 1.1E+06 Reb M area/min.
On the same counts, the results for B4 are 18.7% and 9.5E+06 Reb M area/min.
With B5, the “Conversion Reb D to Reb M after 24 h (%)” value was determined as 1.9% and the “initial rate (Reb M area/min)” value stood at 7.9E+05 Reb M area/min.
The corresponding values for B6 are 49.3% and 4.7E+07 Reb M area/min.
Regarding B7, the “Conversion Reb D to Reb M after 24 h (%)” value was 1.0% and the “initial rate (Reb M area/min)” value came to 2.2E+05 Reb M area/min.
The corresponding values for B8 are 47.6% and 3.8E+07 Reb M area/min.
As to B9, the “Conversion Reb D to Reb M after 24 h (%)” value was 12.9% and the “initial rate (Reb M area/min)” value stood at 4.6E+06 Reb M area/min.
Take B10: the “Conversion Reb D to Reb M after 24 h (%)” value is on record as 0.7% and the “initial rate (Reb M area/min)” value worked out at 4.3E+05 Reb M area/min.
